The record followed here is patent publication US20040005333A1 (HER MAJESTY THE QUEEN IN RIGHT OF CANADA AS REPRESENTED BY …, published 2004).

Assay [1] deals with protein G agarose (UniProt P06654 228-352). Description: protein G agarose precipitation, SDS-PAGE with Coomassie staining.
Assay [2] addresses T1, human C1q protein (human, UniProt P02745 23-245; P02746 28-253; P02747 29-245).
T1 construct: also called human C1q complement
Description: ELISA on strips coated with human C1q, HRP-anti-human Ab detection.

Sequence of protein G agarose (P06654 228-352): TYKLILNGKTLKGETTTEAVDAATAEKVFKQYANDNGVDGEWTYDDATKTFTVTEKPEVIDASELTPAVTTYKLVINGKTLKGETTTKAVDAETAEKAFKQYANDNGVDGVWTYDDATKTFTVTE
T1 sequence (P02745 23-245 limits assumed, chain 1 of 3): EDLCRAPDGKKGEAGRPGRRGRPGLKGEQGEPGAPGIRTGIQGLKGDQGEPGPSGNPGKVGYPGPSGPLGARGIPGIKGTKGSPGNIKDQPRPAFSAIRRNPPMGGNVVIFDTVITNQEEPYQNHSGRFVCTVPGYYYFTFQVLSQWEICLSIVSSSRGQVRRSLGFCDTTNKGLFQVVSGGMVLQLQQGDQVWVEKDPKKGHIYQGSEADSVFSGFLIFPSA
T1 sequence (P02746 28-253 limits assumed, chain 2 of 3): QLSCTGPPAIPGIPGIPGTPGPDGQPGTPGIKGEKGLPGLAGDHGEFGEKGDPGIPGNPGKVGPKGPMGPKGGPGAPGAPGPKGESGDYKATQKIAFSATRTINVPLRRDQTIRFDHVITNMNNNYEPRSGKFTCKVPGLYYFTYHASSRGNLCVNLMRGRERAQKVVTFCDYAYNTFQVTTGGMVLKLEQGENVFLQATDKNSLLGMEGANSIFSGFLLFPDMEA
T1 sequence (P02747 29-245 limits assumed, chain 3 of 3): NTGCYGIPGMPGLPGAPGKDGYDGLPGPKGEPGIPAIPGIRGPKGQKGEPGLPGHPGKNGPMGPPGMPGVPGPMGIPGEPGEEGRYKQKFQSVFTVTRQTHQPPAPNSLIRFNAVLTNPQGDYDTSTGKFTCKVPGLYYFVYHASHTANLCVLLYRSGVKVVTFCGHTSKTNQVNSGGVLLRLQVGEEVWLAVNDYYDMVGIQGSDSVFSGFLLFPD

B1: mA116 scFv Ab (scFv)
scFv: QVQLQESGPELVKPGASVKISCKASGYTFTDYHVHWVKGKPGQGLEWIGMTYPGFDNTNYSETFKGKATLTVDTSSNTVYMQLSSLTSEDTAVYFCARGVGLDYWGQGTTVTVSSGGGGSGGGGSGGGGSDIELTQSPNSLSTSIGDRIRITCKASQDVDTAVGWYQQRPGQSPKLLIFWSSTRHTGVPDRFTGSGSGTDFTLTISNVQSEDLADYFCHQYSSYPFTFGSGTKLEIK
notes: also called repaired A116 scFv Ab
As for B1, the binding result in assay [1] was “no binding”.

B2: mA116huFc Ab (Fc fusion)
chain: MRGSHHHHHHGMASMTGGQQMGRDLYDDDDKDRWGSELEICSWYHGIPLVVPFYAAQPAMAQVQLQESGPELVKPGASVKISCKASGYTFTDYHVHWVKGKPGQGLEWIGMTYPGFDNTNYSETFKGKATLTVDTSSNTVYMQLSSLTSEDTAVYFCARGVGLDYWGQGTTVTVSSGGGGSGGGGSGGGGSDIELTQSPNSLSTSIGDRIRITCKASQDVDTAVGWYQQRPGQSPKLLIFWSSTRHTGVPDRFTGSGSGTDFTLTISNVQSEDLADYFCHQYSSYPFTFGSGTKLEIKRAAAGCLVKDYFPEPVTVSWNSGALTSGVHTFPAVLQSSGLYSLSSVVTVPSSSLGTQTYICNVNHKPSNTKVDKRVEPKSCDKTHTCPPCPAPELLGGPSVFLFPPKPKDTLMISRTPEVTCVVVDVSHEDPEVKFNWYVDGVEVHNAKTKPREEQYNSTYRVVSVLTVLHQDWLNGKEYKCKVSNKALPAPIEKTISKAKGQPREPQVYTLPPSRDELTKNQVSLTCLVKGFYPSDIAVEWESNGQPENNYKTTPPVLDSDGSFFLYSKLTVDKSRWQQGNVFSCSVMHEALHNHYTQKSLIRLLTKPERKLSWLLPPLSNN
notes: also called recombinant mA116huFc Ab; 70 kDa protein
As for B2, the binding result in assay [2] is on record as “binds”.
